The values that follow come from CN112500487A (HUADAO SHANGHAI BIOMEDICAL CO LTD, dated 2021).

By Kd is commonly meant a measure of binding affinity in units of concentration. Higher therefore signals a looser complex. For orientation: koff means the rate constant with which the complex falls apart. Lower therefore signals a long-lived complex. What is called kon is the second-order rate constant of association. Read a low kon as slow association.

The target in this test is T1, Human IL-3Rα/CD123蛋白 (human, UniProt P26951 19-305, limits assumed).
T1 construct: Soluble antigen in the mobile phase of the SPR run
T1 sequence (looked up): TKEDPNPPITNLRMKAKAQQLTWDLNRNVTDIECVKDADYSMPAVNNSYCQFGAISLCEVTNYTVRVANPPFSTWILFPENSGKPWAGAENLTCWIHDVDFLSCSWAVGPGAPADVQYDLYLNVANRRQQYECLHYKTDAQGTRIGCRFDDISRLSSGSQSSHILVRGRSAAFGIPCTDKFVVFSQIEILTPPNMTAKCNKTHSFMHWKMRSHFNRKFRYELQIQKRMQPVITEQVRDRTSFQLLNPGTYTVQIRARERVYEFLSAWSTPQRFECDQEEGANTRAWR
Description: SPR (Biacore), antibody immobilised on chip, antigen in mobile phase. (In SPR one partner is held on a chip, and binding of the other changes the refractive index at the surface.)

B1: CD123-89 VHH-mIgG2a Fc抗体 (anti-CD123 VHH CD123-89 with mouse Fc tag) (Fc fusion)
chain: EVQLVESGGDSVQTGGSLRLSCLASGYIGSGYCLAWFRQAPGKERKKVANIVIGVGRPYYADSVKGRFTISQDNAKNTLYLQMNSLKPEDTAMYYCAASKFGSWSCGDYNYWGQGTQVTVSS
notes: Expressed in 293E cells from C-4pCP.Stuffer VHH-mCg2a-FC and purified on MabSelect SuRe; also called 抗CD123 VHH抗体CD123-89; 重组CD123-89抗体; not shown: mouse IgG2a Fc tag from vector C-4pCP.Stuffer VHH-mCg2a-FC
In the case of B1, the dissociation constant (Kd) was found to be 480 pM, the off-rate (koff) came to 0.000174 s⁻¹ and the kon was 362000 M⁻¹ s⁻¹.
